Patent US20240382610A1 (TALLAC THERAPEUTICS, published 2024)

Key:
[1] = molecular target: T1, Cyno nectin-4 ECD-6His (TNT-255) (cynomolgus, UniProt Q96NY8 32-349 (human entry)); test: SPR Biacore 8K
T1 construct: entry includes the 6His tag
T1 chain: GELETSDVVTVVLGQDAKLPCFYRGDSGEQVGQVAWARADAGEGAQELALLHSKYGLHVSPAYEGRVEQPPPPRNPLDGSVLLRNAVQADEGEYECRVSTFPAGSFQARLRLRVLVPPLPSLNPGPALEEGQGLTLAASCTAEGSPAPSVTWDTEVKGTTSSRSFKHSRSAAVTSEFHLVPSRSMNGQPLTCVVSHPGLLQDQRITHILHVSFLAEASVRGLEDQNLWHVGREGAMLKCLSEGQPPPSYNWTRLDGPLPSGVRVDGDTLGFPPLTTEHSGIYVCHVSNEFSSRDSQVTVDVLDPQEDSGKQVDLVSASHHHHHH
Method: (§1) Further testing of select nectin-4 antibodies to human, mouse and cyno nectin-4. Additional assessment of the nectin-4 antibodies was performed to measure binding to human, mouse, and cynomolgus nectin-4. Biacore 8K (Cytiva, Marlborough, MA) was used to further characterize binding of four of the nectin-4 monoclonal antibodies.
(§2) All experiments were performed at 25° C. temperature and in HBS-EP+ run buffer (10 mM HEPES, pH 7.4, 150 mM NaCl, 3 mM EDTA, 0.05% Tween-20). The antibodies were captured or immobilized on a Biacore chip either through amine-coupling method on a CM5 or captured by ProteinA chip or captured by anti-mouse polyclonal antibody or anti-human polyclonal antibody. […] The data were processed and analyzed in Biacore Insight Evaluation Software using double-reference subtraction of the data and then fitted to a simple Langmuir binding model using global kinetic rate constants for association (Kₐ), dissociation (Kd), and Rₘₐₓ values per sample. Fit quality was determined by inspection of the residuals and of statistical T values and the equilibrium dissociation (or affinity) constant was deduced by the ratio of the kinetic rate constants. KD=Kd/Kₐ.

[2] = molecular target: T2, Mouse nectin-4 ECD-6His (TNT-250) (mouse, UniProt Q8R007 31-347); test: SPR Biacore 8K
T2 construct: entry includes the 6His tag; also called mouse nectin-4-LCD
T2 sequence: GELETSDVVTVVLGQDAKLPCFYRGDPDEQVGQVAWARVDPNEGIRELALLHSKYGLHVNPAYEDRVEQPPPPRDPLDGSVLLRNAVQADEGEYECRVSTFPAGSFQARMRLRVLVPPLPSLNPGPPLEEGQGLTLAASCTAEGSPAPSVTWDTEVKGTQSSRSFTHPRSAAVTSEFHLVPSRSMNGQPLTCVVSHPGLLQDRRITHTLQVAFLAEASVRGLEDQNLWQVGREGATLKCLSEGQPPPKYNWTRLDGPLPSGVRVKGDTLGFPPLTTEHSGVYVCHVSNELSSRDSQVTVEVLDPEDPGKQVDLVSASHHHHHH
Method: as §1, §2

[3] = molecular target: T3, Human nectin-4-IgV-6His (TNT-252) (human, UniProt Q96NY8 32-147); test: SPR Biacore 8K
T3 construct: entry includes the 6His tag
T3 sequence: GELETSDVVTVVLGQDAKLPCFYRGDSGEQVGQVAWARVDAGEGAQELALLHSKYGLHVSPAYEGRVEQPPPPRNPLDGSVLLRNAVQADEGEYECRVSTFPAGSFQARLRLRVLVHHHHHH
Method: as §1, §2

[4] = molecular target: T4, Human nectin-4 ECD-6His (TNT-175) (human, UniProt Q96NY8 32-349); test: SPR Biacore 8K
T4 construct: the entry holds the extracellular domain with the C-terminal 6His tag
T4 sequence: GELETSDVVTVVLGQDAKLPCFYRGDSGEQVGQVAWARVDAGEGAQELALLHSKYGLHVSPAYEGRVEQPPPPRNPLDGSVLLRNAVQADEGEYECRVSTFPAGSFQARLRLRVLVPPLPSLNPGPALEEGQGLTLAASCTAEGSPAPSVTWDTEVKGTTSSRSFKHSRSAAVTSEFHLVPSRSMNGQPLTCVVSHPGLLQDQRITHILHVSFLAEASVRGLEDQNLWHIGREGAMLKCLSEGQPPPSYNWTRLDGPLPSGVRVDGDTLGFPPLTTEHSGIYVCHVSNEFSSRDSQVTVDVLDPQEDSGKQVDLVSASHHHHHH
Method: as §1, §2

[5] = molecular target: T1, Cyno nectin-4 ECD-6His (TNT-255); test: SPR Biacore 8K, mAb on protein A
Method: (§3) The running buffer was 10 mM HEPES, pH 7.4, 150 mM NaCl, 3 mM EDTA, 0.05% (v/v) Surfactant P20 (HBS-EP+). […] The nectin-4 analytes were injected in either single-cycle kinetics or multi-cycle kinetics mode at nominal starting concentrations of 300 nM or 900 nM with 3-fold serial dilutions. Association times were monitored for 120 s, and dissociation times were monitored 1800 s at 30 μL/min flow rate. The surfaces were regenerated with 10 mM glycine at pH1.7 or 75 mM phosphoric acid at pH1.6 for two pulses of 15 s at 30 μL/min flow rate.
(§4) The data were processed and analyzed with Biacore 8K Evaluation Software Version 3.0.12.15655 (Cytiva, Global Life Sciences Solutions USA LLC, Marlborough, MA). […] The responses from the nearest buffer blank injection were then subtracted from the reference subtracted data (2-1) to yield double-referenced data. These double-reference data were fit to a simple 1:1 Langmuir binding model with mass transport to determine the apparent association (ka) and dissociation rate constants (kd). The apparent equilibrium dissociation constant or affinity constant was then calculated based on their ratio as (KD=kd/ka).

[6] = molecular target: T2, Mouse nectin-4 ECD-6His (TNT-250); test: SPR Biacore 8K, mAb on protein A
Method: as §3, §4

[7] = molecular target: T3, Human nectin-4-IgV-6His (TNT-252); test: SPR Biacore 8K, mAb on protein A
Method: as §3, §4

[8] = molecular target: T4, Human nectin-4 ECD-6His (TNT-175); test: SPR Biacore 8K, mAb on protein A
Method: as §3, §4

[9] = molecular target: T4, Human nectin-4 ECD-6His (TNT-175); test: SPR Biacore 8K, mAb on protein A; remark: listed apart in the source

B1: TNT-203 (antibody, human IgG1, kappa)
heavy: not shown
light: EIVLTQSPATLSLSPGERATLSCRASQSVSSYLAWYQQKPGQAPRLLIYDASNRATGIPARFSGSGSGTDFTLTISSLQAEDFATYYCQQSYSTRFGGGTKVEIKRTVAAPSVFIFPPSDEQLKSGTASVVCLLNNFYPREAKVQWKVDNALQSGNSQESVTEQDSKDSTYSLSSTLTLSKADYEKHKVYACEVTHQGLSSPVTKSFNRGEC
Kd [1]: 172 nM | Kd [2]: 115 nM | Kd [3]: 138 nM | Kd [4]: 70 nM | Kd [5]: 172 nM | Kd [6]: 196 nM | Kd [7]: 138 nM | Kd [8]: 101 nM

B2: TNT-207 (antibody, human IgG1, kappa)
heavy: not shown
light: DIQMTQSPSSLSASVGDRVTITCRASQGISNYLAWFQQKPGKAPKSLISAASSLQSGVPSRFSGSGSGTDFTLTISSLQPEDFATYYCLQHDSFPITFGGGTKLEIKRTVAAPSVFIFPPSDEQLKSGTASVVCLLNNFYPREAKVQWKVDNALQSGNSQESVTEQDSKDSTYSLSSTLTLSKADYEKHKVYACEVTHQGLSSPVTKSFNRGEC
Kd [1]: 4.2 nM | Kd [2]: 6 nM | Kd [3]: 1.8 nM | Kd [4]: 1.5 nM | Kd [5]: 4.19 nM | Kd [6]: 5.07 nM | Kd [7]: 1.77 nM | Kd [8]: 1.37 nM | Kd [9]: 1 nM

B3: TNT-212 (antibody, human IgG1, kappa)
heavy: not shown
light: DIQMTQSPSSVSASVGDRVTITCRASQGISGWLAWYQQKPGKAPKFLIYAASTLQSGVPSRFSGSGSGTDFTLTISSLQPEDFATYYCQQANSFPPTFGGGTKVEIKRTVAAPSVFIFPPSDEQLKSGTASVVCLLNNFYPREAKVQWKVDNALQSGNSQESVTEQDSKDSTYSLSSTLTLSKADYEKHKVYACEVTHQGLSSPVTKSFNRGEC
notes: also called TNT-154
Kd [1]: 40 nM | Kd [3]: 10 nM | Kd [4]: 8 nM | Kd [5]: 40.5 nM | binding result [6]: binds | Kd [7]: 9.88 nM | Kd [8]: 8.69 nM
